Test results from patent US20070172470A1, “Phosphatase regulation of nucleic acid transcription” (The Regents of the University of California, priority 2003, published 2007).

Key:
[1] = test system: PPARγ receptor activity on PPARγ promoter response element; test: Luciferase reporter assay, ligand-activated PPARγ receptor; type: cell-based, human
From the text: (§1) Gal4-DNA binding domain-SCP1 fusion protein expression plasmids-were cotransfected in HEK293 cells with a Gal 4-TKLuc reporter plasmid and luciferase gene expression quantitated. In all panels, results of triplicate transfections are shown +/− SD. Data is expressed as fold-activation experimental/control). […] The indicated amounts of SCP1 or mutant SCP1 expression plasmids were cotransfected in HEK293 cells along with Gal 4-VP16 expression and Gal 4-TK-Luc reporter plasmids and luciferase activity was quantitated. […] The indicated receptor expression plasmids were cotransfected with their cognate promoter-reporter plasmids with or without SCP1 or mutant SCP1 expression plasmids. Cells were treated or untreated with receptor-specific ligands as described infra. […] The indicated concentrations of SCP1 and mutant SCP1 expression plasmids were cotransfected with LMX1 and E47 expression plasmids and the rat insulin 1 promoter-luciferase reporter gene. Luciferase activity was measured as described.
(§2) Tissue Culture and Transfections: Human 293, COS7 and CV1 cells were grown at 37° C. in DMEM supplemented with 10% normal calf serum (BRL). Sub-confluent cells were transfected in 6 well tissue culture dishes using Effectene (Qiagen) according to the manufacturer's instructions. Reporter and activator plasmids (100 ng each) and Flag SCP1 (80 ng) or its mutant were used per well. […]

[2] = test system: P19 mouse embryonic stem cells; test: Neuronal differentiation of P19 cells; type: cell-based; conditions: clonal P19 line, retinoic acid, selective medium
Method: P19 cells, C, differentiated GFP expressing P19 cells; D, differentiated SCP1-expressing P19 cells; F, differentiated REST/NRSF-expressing P19 cells. Numbers of NLC per field are shown. *p=0.001 compared to WT 19 cells; **p=0.008 compared to WT P19 cell using student's t-test.
P19 stably expressing REST/NRSF.
These cell lines were maintained in α-MEM/10%FBS with […] G418. To induce neuronal differentiation, P19 cells were allowed to aggregate in bacterial grade petri-dishes (Fisher) at a seeding density of 1×10^5cells/ml in the presence of 1×10^−6M all-trans retinoic acid. After 3 days of aggregation, cells were dissociated into single cells by 0.05% trypsin-0.53 mM EDTA (Gibco). Trypsin was removed by centrifugation and the cells were plated in 6 cm tissue culture dishes (Nunc). at a density of 1×10^5 cells/cm^2 in Neurobasal medium/N2 supplement (Invitrogen) in the presence or absence of 1 μg/ml fibronectin (Invitrogen). The cells were cultured for 5 days after which average cell numbers/field were determined. Cells were either lysed to prepare total RNA (Rneasy kit, Qiagen) or stained with TuJ1 antibody (Babco).
For immunostaining, cells were fixed for 10 mins with 4% paraformaldehyde. TuJ1 antibody was used at 1:2000 and secondary antibody used was FITC-conjuagated anti-mouse (1:3000).

[3] = test system: glucocorticoid receptor activity on GRE-TK-Luc construct; test: Luciferase reporter assay, dexamethasone-stimulated glucocorticoid receptor; type: cell-based, human; conditions: 100 nM dexamethasone
From the text: as §1, §2

RNAP IIO = molecular target: T1, RNAP IIO (Bos taurus, UniProt G3MZY8); test: CTD phosphatase assay with RNAP IIO as substrate; type: biochemical, calf; conditions: substrates prepared by MAPK2/ERK2
T1 construct: Calf thymus RNAP IIA was purified; from tissue; host or cells: calf thymus
Method: FIGS. 2C and 2D show a CTD phosphatase assay of FCP1 and SCP1 on GST-CTDo and RNAP IIO prepared by MAPK2/ERK2. Increasing amounts of FCP1 or GST-SCP1 214 were assayed in the presence of 75 fmol GST-CTDo (lanes 1-6), 75 fmol RNAP IIO (lanes 7-12), or 75 fmol GST-CTDo and 75. fmol RNAP IIO (lanes 13-18). Both GST-CTDo and RNAP IIO substrates were prepared by the in vitro phosphorylation of CKII-labeled GST-CTDa or RNAP IIA by MAPK2/ERK2. All reactions were carried out in the presence of 7 pmol RAP74. CTD dephosphorylation of both GST-CTDo and RNAP IIO is shown by the increase in mobility of GST-CTDo to GST-CTDa and subunit IIo to IIa, respectively. The difference in the intensity of radiolabeled GST-CTDoand that of radiolabeled subunit IIo is not a reflection of a difference in the amount of substrates present, but of the higher efficiency with which CKII incorporates radiolabeled phosphates onto the most C-terminal serine of GST-CTDa compared to subunit. IIa.
Increasing amounts of GST-SCP1 214 were assayed in the presence of 3.7 fmol RNAP IIO prepared by CTDK1/CTDK2, TFIIH, P-TEFb, MAPK2/ERK2 and Cdc2 kinase. All reactions were carried out in-the presence of 7 pmol. RAP74. CTD dephosphorylation of RNAP IIO isozymes. by qSTSCP1 214 is shown by an increase in mobility of subunit IIo to that of IIa. The results are summarized in the graph showing the percent of RNAP IIO remaining as a function of increasing SCP1 concentrations.
Preparation and Purification of ^32P-RNAP IIO Isozymess and ^32P-GST-CTDo: Calf thymus RNAP IIA was purified by the method of Hodo and Blatti (30) with modifications as described by Kang and Dahmus (31). Specific isozymes of ^32p-labeled RNAP IIO were prepared by phosphorylation at the most C-terminal serine (CKII site) in the largest subunit of purified RNAP IIA with recombinant CKII and […], followed by CTD phosphorylation in the presence of 2 mM ATP with either purified CTDK1/CTDK2, TFIIH, P-TEFb, recombinant MAPK2/ERK2 or recombinant Cdc2 kinase. The RNAP IIO isozymes were individually purified over a DE53 column with a step elution of 500 mM KCl (28). Because only the most C-terminal serine is labeled with ^32p and lies outside. the consensus repeat, dephosphorylation by CTD phosphatase results in an electrophoretic mobility shift in SDS-PAGE of subunit IIo to the position of subunit IIa without the loss of label. Similarly, ^32P-labeled GST-CTDo was prepared from GST-CTDa by CKII followed by MAPK2/ERK2. GST-CTDo was purified over a glutathione-agarose column with a step elution of 15 mM glutathione.
(§3) CTD phosphatase assays utilizing RNAP IIO and GST-CTDo as substrate were performed as described previously (32) with minor modifications. Reactions were performed in 20 μl of CTD phosphatase buffer (50 mM Tris-HCl, pH 7.9, 10 mM MgCl2, 20% glycerol, 0.025% Tween 80, 0.1 mM EDTA, 5 mM DTT) in the presence of 20 mM KCl. Each reaction contained specified amounts of GST-CTDo and/or RNAP IIO and was carried out in the presence of 7 pmol RAP74. Reactions were initiated by the addition of FCP1 or SCP1 and incubated at 30° C. for 30 minutes. Assays were terminated by the addition of 5× Laemmli buffer, and RNAP II subunits and GST-CTD were resolved on a 5% SDS-PAGE gel. The gel images were developed by autoradiography and scanned by Molecular Dynamics Image Scanner Storm 860 in the phosphor screen mode. Data were quantitatively analyzed by ImageQuant software.

[4] = test system: Gal 4-TK-Luc reporter stimulated by Gal 4-VP16; test: Luciferase reporter assay, Gal 4-VP16 stimulated gene expression; type: cell-based, human; conditions: HEK293 cells
From the text: as §1, §2

[5] = test system: T3 receptor activity on DR+4 TRE-TK-Luc reporter; test: Luciferase reporter assay, ligand-activated T3 receptor; type: cell-based, human; conditions: 100 nM T3, DR+4 TRE-TK-Luc
From the text: as §1, §2

[6] = type: biochemical; conditions: PNθP as substrate
[7] = test system: ElALuc, pGL3-Luc and Gal4-TATA-Luc constructs; test: Luciferase reporter assay, basal promoter activity; type: cell-based, human; conditions: ElALuc, pGL3-Luc and Gal4-TATA-Luc constructs
From the text: as §1, §2

SCP1 = molecular target: T2, SCP1 (Homo sapiens, UniProt Q9GZU7); test: Effect of RAP74 on CTD phosphatase activity of SCP1; type: biochemical; conditions: 7 pmol RAP74, 14.4 fmol RNAP IIO prepared by TFIIH
T2 construct: GST (N, cleaved yes); made in house
T2 sequence (Q9GZU7 1-260 isoform Q9GZU7-2): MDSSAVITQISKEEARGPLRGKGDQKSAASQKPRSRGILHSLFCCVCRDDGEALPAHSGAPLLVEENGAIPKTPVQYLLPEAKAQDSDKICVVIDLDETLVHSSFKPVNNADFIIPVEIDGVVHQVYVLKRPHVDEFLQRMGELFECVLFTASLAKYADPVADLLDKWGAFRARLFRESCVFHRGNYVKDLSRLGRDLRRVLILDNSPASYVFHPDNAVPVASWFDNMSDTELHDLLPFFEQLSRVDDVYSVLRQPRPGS
Method: Increasing amounts of the indicated forms of SCP1 and SCP2 were assayed in the presence of 14.4 fmol RNAP. IIO prepared by TFIIH. Reactions were carried out in the presence and in the absence of 7 pmol RAP74.
as §3

GST-SCP1 = molecular target: T3, GST-SCP1 (Homo sapiens, UniProt Q9GZU7); test: Binding of RAP74 to GST-SCP1; conditions: not to GST
T3 construct: made in house
T3 sequence (Q9GZU7 1-261): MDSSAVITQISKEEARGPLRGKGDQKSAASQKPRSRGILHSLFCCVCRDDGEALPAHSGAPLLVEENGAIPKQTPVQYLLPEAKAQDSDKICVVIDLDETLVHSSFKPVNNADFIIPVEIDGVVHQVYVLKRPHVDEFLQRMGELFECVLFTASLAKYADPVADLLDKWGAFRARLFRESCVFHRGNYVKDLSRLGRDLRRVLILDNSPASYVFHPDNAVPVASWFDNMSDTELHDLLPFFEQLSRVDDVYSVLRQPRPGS
T3 sequence (P35269 1-517 partner): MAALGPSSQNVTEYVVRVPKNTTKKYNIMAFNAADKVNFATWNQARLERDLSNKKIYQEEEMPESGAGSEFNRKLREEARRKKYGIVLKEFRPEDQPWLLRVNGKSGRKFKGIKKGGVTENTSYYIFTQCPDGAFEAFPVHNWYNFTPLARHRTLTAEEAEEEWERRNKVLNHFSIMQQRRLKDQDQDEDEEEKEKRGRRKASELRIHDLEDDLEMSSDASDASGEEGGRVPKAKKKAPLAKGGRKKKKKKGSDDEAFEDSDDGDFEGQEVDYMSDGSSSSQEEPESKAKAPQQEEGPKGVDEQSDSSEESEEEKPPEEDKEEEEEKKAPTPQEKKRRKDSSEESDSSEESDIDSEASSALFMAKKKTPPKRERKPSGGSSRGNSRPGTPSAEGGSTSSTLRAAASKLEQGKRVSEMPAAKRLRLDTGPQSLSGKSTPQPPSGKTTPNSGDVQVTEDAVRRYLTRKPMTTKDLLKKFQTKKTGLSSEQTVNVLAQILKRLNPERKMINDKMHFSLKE

Row | Molecule | ligand-activated PPARγ receptor activity [1] | increase of the extent of precursor differentiation into neurons [2] [fold] | dexamethasone-stimulated glucocorticoid receptor activity [3] | CTD phosphatase activity on GST-CTDo and RNAP IIO (RNAP IIO) | enhancement of Gal 4-VP16 stimulated activity [4] | ligand-activated T3 receptor activity [5] | phosphatase activity [6] | increase of luciferase activity [7] | shift of the dose response curve for SCP1 catalyzed dephosphorylation of RNAP IIO to lower concentration (SCP1) | binding to GST-SCP1 (GST-SCP1)
1 | mutant SCP1: D96E, D98N phosphatase-inactive dominant negative mutant of SCP1 261, SEQ ID NO:10 (protein, Drosophila) MDSSAVITQISKEEARGPLRGKGDQKSAASQKPRSRGILHSLFCCVCRDDGEALPAHSGAPLLVEENGAIPKTPVQYLLPEAKAQDSDKICVVIELNETLVHSSFKPVNNADFIIPVEIDGVVHQVYVLKRPHVDEFLQRMGELFECVLFTASLAKYADPVADLLDKWGAFRARLFRESCVFHRGNYVKDLSRLGRDLRRVLILDNSPASYVFHPDNAVPVASWFDNMSDTELHDLLPFFEQLSRVDDVYSVLRQPRPGS | enhanced | > 2 | significantly enhanced | lacked activity on either substrate | about 2 fold | enhanced | inactive | 1.5- to 6 fold | – | –
2 | RAP74: RAP74 subunit of TFIIF (protein) MAALGPSSQNVTEYVVRVPKNTTKKYNIMAFNAADKVNFATWNQARLERDLSNKKIYQEEEMPESGAGSEFNRKLREEARRKKYGIVLKEFRPEDQPWLLRVNGKSGRKFKGIKKGGVTENTSYYIFTQCPDGAFEAFPVHNWYNFTPLARHRTLTAEEAEEEWERRNKVLNHFSIMQQRRLKDQDQDEDEEEKEKRGRRKASELRIHDLEDDLEMSSDASDASGEEGGRVPKAKKKAPLAKGGRKKKKKKGSDDEAFEDSDDGDFEGQEVDYMSDGSSSSQEEPESKAKAPQQEEGPKGVDEQSDSSEESEEEKPPEEDKEEEEEKKAPTPQEKKRRKDSSEESDSSEESDIDSEASSALFMAKKKTPPKRERKPSGGSSRGNSRPGTPSAEGGSTSSTLRAAASKLEQGKRVSEMPAAKRLRLDTGPQSLSGKSTPQPPSGKTTPNSGDVQVTEDAVRRYLTRKPMTTKDLLKKFQTKKTGLSSEQTVNVLAQILKRLNPERKMINDKMHFSLKE | – | – | – | – | – | – | – | – | approximately 10 fold | bound directly
